{"source": "patent US20090317333", "system": "AKAR3 (A-Kinase Activity Reporter 3)", "data": [{"substance": "catalytic subunit of PKA (protein kinase A), as used in the in vitro kinase assay", "values": [{"measurement": "FRET efficiency of AKAR3 after phosphorylation (trypsin quantification)", "result": "38.8%±7.36% and 47.2%±7.67% (n=2) before and after phosphorylation, respectively"}, {"measurement": "FRET efficiency of AKAR3 before phosphorylation (trypsin quantification)", "result": "38.8%±7.36% and 47.2%±7.67% (n=2) before and after phosphorylation, respectively"}, {"measurement": "increase of the emission ratio of AKAR3 over approximately 40 minutes after addition of ATP (in vitro kinase assay)", "result": "29.1%±1.11% (n=2)"}]}]}
